Source: article PMC2115214
Read-outs that look alike come from different tables or passages of the source.

Key:
[1] = molecular target: high-affinity receptor for bFGF on bovine capillary endothelial (BCE) cells (bovine (endogenous in BCE cells)); assay: radioligand binding
[2] = molecular target: high-affinity receptor for bFGF on bovine capillary endothelial (BCE) cells (bovine (endogenous in BCE cells)); assay: radioligand binding; remark: listed apart in the source

Q: With “125I-labeled basic fibroblast growth factor (125I-bFGF) (from UniProt P09038 1-288) (ligand)” as the substance, how does the fmol bFGF bound to high affinity sites [1] read?
A: Its fmol bFGF bound to high affinity sites is 3.1 fmol.

Q: What about the fmol bFGF bound to high affinity sites [2] of the same substance?
A: Its fmol bFGF bound to high affinity sites is 2.6 fmol.
